# Measured values as given in patent publication US20240076386A1 (Pfizer, published 2024).
# T1: mouse E-selectin extracellular domain with 10 His purification tail (mouse, UniProt Q00690 22-557)
# T1 construct: also called soluable mouse E-selectin extracellular domain; muE-Selctin
# T1 sequence: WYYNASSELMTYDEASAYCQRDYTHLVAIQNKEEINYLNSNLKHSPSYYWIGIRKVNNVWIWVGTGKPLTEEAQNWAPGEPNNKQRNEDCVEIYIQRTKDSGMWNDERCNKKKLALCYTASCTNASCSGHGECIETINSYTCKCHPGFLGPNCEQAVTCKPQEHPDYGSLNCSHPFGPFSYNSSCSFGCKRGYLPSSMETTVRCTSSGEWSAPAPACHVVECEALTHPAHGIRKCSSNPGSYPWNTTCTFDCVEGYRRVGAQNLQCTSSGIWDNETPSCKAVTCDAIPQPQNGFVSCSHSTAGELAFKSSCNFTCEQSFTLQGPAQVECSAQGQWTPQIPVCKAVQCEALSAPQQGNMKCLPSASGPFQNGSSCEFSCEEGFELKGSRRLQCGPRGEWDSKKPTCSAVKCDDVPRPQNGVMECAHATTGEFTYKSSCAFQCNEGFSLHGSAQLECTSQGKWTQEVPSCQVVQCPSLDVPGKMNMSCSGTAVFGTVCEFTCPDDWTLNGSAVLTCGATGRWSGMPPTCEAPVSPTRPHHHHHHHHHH
# T2: human E-selectin extracellular domain with 10 His purification tail (human, UniProt P16581 22-556)
# T2 construct: also called soluable human E-selectin extracellular domain; rhE-Selectin
# T2 sequence: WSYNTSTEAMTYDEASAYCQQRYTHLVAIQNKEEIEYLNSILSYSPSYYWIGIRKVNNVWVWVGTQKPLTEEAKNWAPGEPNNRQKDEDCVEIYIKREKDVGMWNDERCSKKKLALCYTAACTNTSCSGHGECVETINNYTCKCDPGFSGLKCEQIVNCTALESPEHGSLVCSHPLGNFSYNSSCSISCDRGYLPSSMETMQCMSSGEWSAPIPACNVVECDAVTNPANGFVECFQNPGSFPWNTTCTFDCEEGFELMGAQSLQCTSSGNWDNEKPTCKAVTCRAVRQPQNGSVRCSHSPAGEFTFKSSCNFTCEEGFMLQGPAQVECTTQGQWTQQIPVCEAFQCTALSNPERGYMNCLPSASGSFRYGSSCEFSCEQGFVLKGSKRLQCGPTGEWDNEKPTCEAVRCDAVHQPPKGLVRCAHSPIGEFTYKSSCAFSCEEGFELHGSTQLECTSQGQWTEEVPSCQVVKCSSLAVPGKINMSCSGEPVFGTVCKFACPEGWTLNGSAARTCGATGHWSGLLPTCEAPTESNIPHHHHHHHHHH
# T3: human E-selectin, cell-surface expressed (human, UniProt P16581 22-610)
# T3 construct: also called CHO-human E-selectin cells; human CHO-E
# T3 sequence: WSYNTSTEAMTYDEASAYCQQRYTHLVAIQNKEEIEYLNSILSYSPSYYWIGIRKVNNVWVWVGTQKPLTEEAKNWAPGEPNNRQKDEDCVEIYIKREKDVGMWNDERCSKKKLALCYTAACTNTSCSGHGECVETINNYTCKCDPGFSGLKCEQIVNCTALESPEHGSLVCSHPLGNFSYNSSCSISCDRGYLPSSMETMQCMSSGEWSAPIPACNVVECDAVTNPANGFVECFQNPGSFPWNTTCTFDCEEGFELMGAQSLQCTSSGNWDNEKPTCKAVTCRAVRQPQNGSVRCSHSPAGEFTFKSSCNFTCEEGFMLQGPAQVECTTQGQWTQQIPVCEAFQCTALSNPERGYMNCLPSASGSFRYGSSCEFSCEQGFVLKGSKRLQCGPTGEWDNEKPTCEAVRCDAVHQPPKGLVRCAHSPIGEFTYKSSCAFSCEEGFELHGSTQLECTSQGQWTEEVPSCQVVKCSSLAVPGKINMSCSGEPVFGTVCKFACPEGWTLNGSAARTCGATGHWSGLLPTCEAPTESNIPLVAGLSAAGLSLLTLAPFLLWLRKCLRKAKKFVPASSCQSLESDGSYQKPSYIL
# Key:
# [1] = biological target: T1, mouse E-selectin extracellular domain …; assay: antigen binding ELISA, HRP detection
# Experimental: (§1) 384-well Maxisorp plates were used to capture the human and mouse His-tagged recombinant E-selectin polypeptides. The polypeptides were incubated with chimeric antibodies of varying concentrations and detected with HRP-labeled anti-human IgG1 antibodies.
# [2] = biological target: T2, human E-selectin extracellular domain …; assay: antigen binding ELISA, HRP detection
# Experimental: as §1
# [3] = biological target: T3, human E-selectin, cell-surface expressed; assay: competition ELISA on CHO cells vs sialyl Lewis ligand-PAA-biotin/SA-HRP
# Experimental: In a static ligand cellular adhesion assay, horse radish peroxidase (HRP) conjugated E-selectin ligand (sialyl Lewis antigen) and E-selectin antibodies compete for binding to human or cynomolgus E-selectin expressed on Chinese hamster ovary (CHO) cells. The ability of anti-E-selectin antibodies to neutralize ligand binding was assessed in a static neutralization assay using a competition enzyme-linked immunosorbent assay (ELISA) to evaluate the neutralization of the sialyl Lewis antigen to Chinese hamster ovary cells (CHO) engineered to express human or cynomolgus monkey E-selectin.
# CHO cells expressing E-selectin were seeded at 12,500 cells per well into a 96 well tissue culture plate and incubated at 37° C., 5% CO₂ for 48 hours to form a confluent monolayer. Plates were subsequently washed twice with 200 μL of calcium magnesium free PBS. Anti-E-selectin antibodies or an IgG1 isotype control (IgG control) were added to the assay in the presence of a small synthetic conjugate of biotinylated, sialyl Lewis A polyacrylamide (Carbosynth LLC, OS45446) or sialyl Lewis X polyacrylamide (Glycotech, 01-045) with streptavidin/horseradish peroxidase (100 μL total) and incubated at 37° C., 5% CO₂ for 2 hours. Plates were then washed twice with 200 μL of calcium and magnesium free PBS. Following the incubation, the cells were washed twice with 200 μL of wash buffer containing 2 mM of calcium chloride (50 mM TRIS [trisaminomethane], 150 mM sodium chloride; 0.05% polysorbate 20, pH 7.4; 2 mM calcium chloride). Signal was developed by adding 100 μL of 1-Step Ultra TMB substrate (Thermo Scientific, 34028) and incubating for 30 minutes at room temperature. Reactions were stopped using 2 M of sulfuric acid and absorbance was read at 450 nm (Spectramax M5e). Data were analyzed and graphed using GraphPad Prism software (Version 8.0.2).
binder,measurement,setting,value
"anti-E-selectin antibody 0158 chimera (antibody, human IgG1, kappa, V domains shown, rat VH/VL on effector-null human IgG1 and human kappa) VH: QVQLKESGPGLVQPSETLSLTCTVSGFSISTYNVHWLRQPPGKGLEWMGMMWSGGSPDYNSALKSRLSISRDTSKNQVFLKMNSLQSEDTTTYYCARWGGGFDYWGQGVMVTVSS VL: DIVLTQSPTTLSVTPGETVSLSCRASHSIGTNLHWYQQKTNESPRLLIKFTSQSISGIPSRFSASGSGTDFTLNINNVEFDDVSSYFCQQTQSWPLTFGSGTKLEIKR",EC50,[1],> 133 nM
same,EC50,[2],0.03 nM
"anti-E-selectin antibody 0159 chimera (antibody, human IgG1, kappa, V domains shown, rat VH/VL on effector-null human IgG1 and human kappa) VH: EVQLQQSGAELGKPGTSVKLSCKVSGYNIRSTYMHWVSQRPGKGLEWIGRIDPANGNTIYAEKFKRKATLTADTSSNTAYMQLSQLKSDDRAIYFCAMEVRVSFEYWGQGVMVTVSS VL: DIQMTQSPSFLSASVGDRVTINCKASQNINKYLDWYQQKLGEGPKLLIYYTNNLHTGIPSRFSGSGSGTDFTLTISSLQPEDVATYFCLQHDSGYTFGAGTKLELKR",EC50,[1],> 133 nM
same,EC50,[2],0.02 nM
"anti-E-selectin antibody 0170 chimera (antibody, human IgG1, kappa, V domains shown, rat VH/VL on effector-null human IgG1 and human kappa) VH: EVQLQQSGAELGKPGTSVKLSCKVSGYSIRSTYMHWVNQRPGKGLEWVGRIDPANGNTIYAERFKNKATLTADTSSNTAYMQLSQLKSDDTAIYFCAVEILGIFDYWGQGVMVTVSS VL: DIQMTQSPSFLSASVGDRVTINCKASQNIDKYLDWYQQKLGEAPKLLMYNTNSLHTGIPSRFSGSGSGTDFTLTISSLQPEDVATYFCLQHNSGYTFGAGTKLELKR",EC50,[1],> 133 nM
same,EC50,[2],0.01 nM
"anti-E-selectin antibody 0180 chimera (antibody, human IgG1, kappa, V domains shown, rat VH/VL on effector-null human IgG1 and human kappa) VH: EVQLQQSGAELGKPGTSVKLSCKVSGYKIRSSYMHWVNQRPGKGLEWIGRIDPANGNTIYGDKFKSKATLTSDTSSNTAYIQLSQLKSDDTAIYFCAIDIGTTFDYWGQGVMVTVSS VL: DIQMTQSPSFLSASVGDRVTINCKASQHINRYLNWYQQKLGEAPKLLIYDANNLQTGIPSRFSGSGSGTDFTLTISSLQPEDVATYFCLQHNSWPNTFGAGTKLELKR",EC50,[1],> 133 nM
same,EC50,[2],0.01 nM
"humanized anti-E-selectin antibody 0841 (antibody, human IgG1, kappa, V domains shown, effector-null human IgG1, kappa) VH: EVQLVESGGGLVQPGGSLRLSCAASGYNIRSSYMHWVRQAPGKGLEWVARIDPANGNTIYAEKFKIRFTISADNAKNSAYLQMNSLRAEDTAVYYCAMDLYSTSEYWGQGTLVTVSS VL: DIQMTQSPSSLSASVGDRVTITCKTSQNINRYLNWYQQKPGKAPKLLIYNANSLQTGVPSRFSGSGSGTDFTLTISSLQPEDFATYFCLQDNSWPLTFGQGTKVEIKR",IC50,[3],2.56 nM
"anti-E-selectin antibody 0164 chimera (antibody, human IgG1, kappa, V domains shown, rat VH/VL on effector-null human IgG1 and human kappa) VH: EVQLQQSGAEFGKPGTSVKLSCKVSGYNIRSSYMHWVNQRPGKGLEWIGRIDPANGNTIYAEKFKIKAILTADSSSNTAYMQLSQLKSDDTAIYFCAMDLYSTSEYWGQGVMVTVSS VL: DIQMTQSPSFLSASVGDRVTINCKTSQNINRYLNWYQQKLGEAPKLLIYNANSLQTGIPSRFSASGSGTDFTLTINSLQPEDVATYFCLQDNSWPLTFGSGTKLEIKR",EC50,[1],> 133 nM
same,EC50,[2],0.02 nM
same,IC50,[3],2.69 nM
"optimized anti-E-selectin antibody 1282 (antibody, human IgG1, kappa, V domains shown, effector-null human IgG1, kappa) VH: EVQLVESGGGLVQPGGSLRLSCAASGYAIRSAYMHWVRQAPGKGLEWVARIDPANGNTIYVDSVEGRFTISADNAKNSAYLQMNSLRAEDTAVYYCAMDLYSTSEYWGQGTLVTVSS VL: DIQMTQSPSSLSASVGDRVTITCKTSQNIERYLNWYQQKPGKAPKLLIYAASSLQSGVPSRFSGSGSGTDFTLTISSLQPEDFATYFCLQDNAWPLTFGQGTKVEIKR",IC50,[3],1.38 nM
"optimized anti-E-selectin antibody 1284 (antibody, human IgG1, kappa, V domains shown, effector-null human IgG1, kappa) VH: EVQLVESGGGLVQPGGSLRLSCAASGYAIRSAYMHWVRQAPGKGLEWVARIDPANGNTIYVESVEGRFTISADNAKNSAYLQMNSLRAEDTAVYYCAMDLYSTSEYWGQGTLVTVSS VL: DIQMTQSPSSLSASVGDRVTITCKTSQNIERYLNWYQQKPGKAPKLLIYAASSLQSGVPSRFSGSGSGTDFTLTISSLQPEDFATYFCLQDNAWPLTFGQGTKVEIKR",IC50,[3],2.77 nM
"optimized anti-E-selectin antibody 1444 (antibody, human IgG1, kappa, V domains shown, effector-null human IgG1, kappa) VH: EVQLVESGGGLVQPGGSLRLSCAASGYAIRSAYMHWVRQAPGKGLEWVARIDPANGNTIYVDSVTGRFTISADNAKNSAYLQMNSLRAEDTAVYYCAMDLYSTSEYWGQGTLVTVSS VL: DIQMTQSPSSLSASVGDRVTITCKTSQNIERYLNWYQQKPGKAPKLLIYAASSLQSGVPSRFSGSGSGTDFTLTISSLQPEDFATYFCLQDNAWPLTFGQGTKVEIKR",IC50,[3],2.89 nM
"optimized anti-E-selectin antibody 1448 (antibody, human IgG1, kappa, V domains shown, effector-null human IgG1, kappa) VH: EVQLVESGGGLVQPGGSLRLSCAASGYAIRSAYMHWVRQAPGKGLEWVARIDPANGNTIYVDSVKERFTISADNAKNSAYLQMNSLRAEDTAVYYCAMDLYSTSEYWGQGTLVTVSS VL: DIQMTQSPSSLSASVGDRVTITCKTSQNIERYLNWYQQKPGKAPKLLIYAASSLQSGVPSRFSGSGSGTDFTLTISSLQPEDFATYFCLQDNAWPLTFGQGTKVEIKR",IC50,[3],2.78 nM
"anti-E-selectin antibody 0039 chimera (antibody, human IgG1, kappa, V domains shown, rat VH/VL on effector-null human IgG1 and human kappa) VH: QVQLKETGPGLVQPTQTLSITCTVSGFSLTGYYMQWVRQTPGKGLEWMGFIRSSGSTEYNSEFKSRLSISRDTSKNQVFLKMNSLKTEDTGVYYCARCPYKYSSFVYVGVMDAWGQGAPVTVSS VL: EIVMTQSPTSMSTSIGERVTLNCKASQTVGINVDWYQQTPGQPPKLLIYGASNRHTGVPDRFTGSGFGRDFTLTISNVEAEDLAVYCCLQYGSIPHTFGPGTKLELKR",EC50,[1],> 133 nM
same,EC50,[2],0.02 nM
